Measured values published in patent publication US20110091971A1, “Differentiation of Pluripotent Stem Cells” (priority 2008, published 2011).

Tests used:
[1] = system: Human Embryonic Stem Cells (H1 hESC line); test: High content analysis of cell number and SOX17 expression at end of first step of differentiation (Example 12); assay type: cell-based; settings: 100 ng/ml peptide, FIG. 23C-F
Description: (§1) Preparation of Cells for Assay: Stock Cultures of Human Embryonic Stem Cells (H1 hESC line) were maintained in an undifferentiated, pluripotent state on growth factor-reduced MATRIGEL™-coated dishes in MEF conditioned medium supplemented with bFGF (PeproTech; Cat #100-18B) with passage on average every, four days. Passage was performed by exposing cell cultures to a solution of 1 mg/ml collagenase (Invitrogen, Cat #17104-019) for five to seven minutes at 37° C. followed by rinsing the monolayer with MEF conditioned medium and gentle scraping to recover cell clusters. Clusters were centrifuged at low speed to collect a cell pellet and remove residual collagenase. Cell clusters were split at a 1:3 or 1:4 ratio for routine maintenance culture or a 1:1 ratio for immediate assay. All human ES cell lines were maintained at passage numbers less than 50 and routinely evaluated for normal karyotypic phenotype and for absence of mycoplasma contamination.
(§2) Cell clusters were evenly resuspended in MEF conditioned medium supplemented with 8 ng/ml bFGF and seeded onto growth factor-reduced MATRIGEL™-coated 24-well, black wall culture plates (Arctic White; Cat #AWLS-303012) in volumes of 0.5 ml/well. Daily feeding was conducted by aspirating spent culture medium from each well and replacing with an equal volume of fresh medium. Plates were maintained at 37° C., 5% CO2 throughout the duration of assay.
(§3) Assay: The assay was initiated by aspirating culture medium from each well and adding back an aliquot (0.5 ml) of test medium. Test conditions for the first step of differentiation were conducted over a three-day period, feeding daily by aspirating and replacing the medium from each well with fresh test medium. Concentrated supernatants of the ACTN peptides were evaluated for protein concentration using a DuoSet ELISA kit for human activin A (R&D Systems; Cat #DY338), as previously described in Example 11. On the first day of assay, ACTN peptides were diluted to a final concentration of 100 ng/ml in RPMI 1640 medium (Invitrogen; Cat #: 22400) with 2% Albumin Bovine Fraction V, Fatty Acid Free (FAF BSA) (MP Biomedicals, Inc; Cat #152401), 8 ng/ml bFGF, and 20 ng/ml Wnt3a (R&D Systems; Cat #1324-WN/CF) and then added to the assay wells. On the second and third day of assay, ACTN peptides were diluted into RPMI 1640 medium supplemented with 2% fatty acid free BSA and 8 ng/ml bFGF, without any Wnt3a and then added to the assay wells. A positive control sample included a commercial source of activin A (PeproTech; Cat #12 0-14) diluted in culture medium with growth factors as indicated. At the conclusion of three days culture, cells from some wells were harvested for analysis by flow cytometry to evaluate levels of CXCR4, a marker of definitive endoderm formation. […]

[2] = system: Human Embryonic Stem Cells (H1 hESC line); test: FACS analysis of CXCR4 at conclusion of first step of step-wise differentiation (Example 12); assay type: cell-based; settings: 100 ng/ml peptide, end of first step (three days), FIG. 23A, 23B
Description: as §1, §2, §3

B1: ACTN1: wild type Activin A mature protein (SwissProt/UniProt: P08476), SEQ ID 2, expressed from applicant's construct (protein)
chain: GLECDGKVNICCKKQFFVSFKDIGWNDWIIAPSGYHANYCEGECPSHIAGTSGSSLSFHSTVINHYRMRGHSPFANLKSCCVPTKLRPMSMLYYDDGQNIIKKDIQNMIVEECGCS
cell number and SOX17 expression (high content analysis) [1]: equivalent results
CXCR4 expression (FACS) [2]: equivalent and robust CXCR4 expression

B2: ACTN48: activin A variant peptide, SEQ ID 49 (protein)
chain: GLECDGKVNLCCKKQNFVSFKDIGWNDWIIAPSGYHANECSGLCPSHIAGTSGSSLSFHSTVINHYRMRGHSPFANMGACCIPTKLRPMSMLYYDDGQNIIKKDIQNMIVEECGCS
cell number and SOX17 expression (high content analysis) [1]: comparable results
CXCR4 expression (FACS) [2]: equivalent or comparable

B3: ACTN4: activin A variant peptide, SEQ ID 5 (protein)
chain: GLECDGKVNLCCKKQLFVSFKDIGWNDWIIAPSGYHANHCSGLCPSHIAGTSGSSLSFHSTVINHYRMRGHSPFSDMGACCVPTKLRPMSMLYYDDGQNIIKKDIQNMIVEECGCS
cell number and SOX17 expression (high content analysis) [1]: comparable results
CXCR4 expression (FACS) [2]: equivalent or comparable
